The record followed here is the DeepSol protein solubility set.

The nature of the data set: soluble on expression in E. coli; label from the status in PepcDB or PDB records.
Regarding “MGSDKIHHHHHHMSAKQYDTLNNAEITSLAHRALACYPAALQGEVRLLCRSENATFLVTSAGKRYALRLHRSHYHQKAEIESELLWLDALRETGIVVPEAVRDASGERVQSLGLSDGSCRYAVLFHWIDGEMPTTSIDPRTFQQLGEITAHLHQHSRQWQKPDGFQRIVWDHHTMVSAQSHWGSWRDAPNLSRDEHGIVEEAIERMGTEMAEFGKAPHRYGLIHADLRLTNLLLHRGETRVIDFDDCGMGWYLHDLAAAISFVEHHPRAAEWVENWLCGYERVAHVSDEELALLPTLLIQRRIQLTAWVGSHAETEMAQSLGPDWASHSVRLCRRYLETRDLPLGVA”, the “soluble on expression in E. coli” value was “not soluble”.

As for “MQPFDSRQADEVATLLALAEHGSFAAAGRALQRHPSVLSKRLGALERRLGIRLVERTTRQLRFTDEGERLASRFRQAVDLLDEAEHEASLGAAQLRGRLRIALPSAMGRLWLGPLLAEFALAHPQVVLETDYSERFVDIIAEGFDLAIRVGELADSRLVARRLCAHRRILGAAPDYLKRHGVPRIPADLAAHNCLGFSGLHSYPEWKLTRQDEQQPVRVRGSMVSNDNEALLCAARQGLGIFAAGEWLMSRDLEAGRLVRVLPEWKLDADAGVYLVRPSARYATAAASAFRQWVEARFAAGPPWQRQRA”, the “soluble on expression in E. coli” value is reported as “not soluble”.

As for “MSLRIALAGAGAFGEKHLDGLKNIDGVEITSIISRTGEQAAAVAAKYGAKHSSTELEDALARDDVDAVILCTPTQMHASQAIACMKAGKHVQVEIPLADSWADSQEVLRVQQETGKVCMVGHTRRFNPSHQFVHNRIKAGEFNVQQMDVQTYFFRRKNINAKGEPRSWTDHLLWHHAAHTVDLFAYQAGRIVKANAVEGPIHPELGIAMDMSIQLKSETGAICTLSLSFNNDGPLGTFFRYIGDTATYIARYDDLVNGKEEPIDVSKVDVSMNGIELQDREFVAAIREGREPNSSVQKVFDCYRVLGELEQQLAKGEGHHHHHH”, the “soluble on expression in E. coli” value is listed as “soluble”.

Take “MKIQCDVCEKAPATVICCADEAALCPQCDIEIHAANKLASKHQRLHLNSLSTKFPRCDICQEKAAFIFCVEDRALLCRDCDESIHVANSRSANHQRFLATGIKVALTSTICSKEIEKNQPEPSNNQQKANQIPAKSTSQQQQQPSSATPLPWAVDDFFHFSDIESTDKKGQLDLGAGELDWFSDMGFFGDQINDKALPAAEVPELSVSHLGHVHSYKPMKSNVSHKKPRFETRYDDDDEEHFIVPDLG”: the “soluble on expression in E. coli” value is given as “not soluble”.

In the case of “MEQSFTADINEINITNGKLDFSDSSLTPKFSAGIYSLNGDITGLSSNEDSRAKIDLKGKVDKYAPVIIKGSVNPLSHDAFTDIDMLFNGIELTTFTPYSGKFAGYAIDKGKLSLGLNYKLSNNKLVAENNVTLDQLTLGEVVNSEEATSLPIKFALSLLKDSDGLEHHHHHH”, the “soluble on expression in E. coli” value is “soluble”.

Take “MGSDKIHHHHHHMLPTLDGLPFHIAKAQGIYDSLGLDLTILSFNSAYDRDAAFQFKSMDGMITDYPSAVTLQAIHHTDLGIILKHDGYFCFIVSKESGINQLQELKEKNIAVSHNTIIEYATGQLLNKAGISQAEVNKPEIAQLPLRLQMLQYDQIDASFLPDPAASIAMNARHRSLISTQELGIDFTVTAFSREAINEKRREIELLITGYNLGIDYIKMHPQKEWKQVLIEIGVPENLTGLIALPVYRKAERPSADALDKAVTWLKTNNRIPQTYSGYKSLIDTTFIKTNSTTIK”: the “soluble on expression in E. coli” value is reported as “not soluble”.

In the case of “MRPFILLALLVSVTVAFNIFRDEVVPEEQLLAVRRTTRDASDSSSDSDEKDDAKTTVTVSFGLSGSQAWPIFQFFSFALKTKKKSKFFRRSGYELRPRP”, the “soluble on expression in E. coli” value is given as “not soluble”.

For “MSLKEVIFVLLNEFADWEGAFIAACLNQGVMPGSPVPYKVKTLSITKEPVSSIGGFRVLPDYDLKDMPEDYAGLILIGGMSWFSPEAELIAPLIEKAIKDKKVVGGICNASVFLAMHGFLNNVKHTSNTIDYLKQHVGERYTGDSNYVDQQAVRDGKIITANGTGQLEFCREILYALEADTAEAIEKSYLFYKNGEGHHHHHH”, the “soluble on expression in E. coli” value is “soluble”.

For “GPGSMVAPAQRTSVYVGDLPIDLPRPEEAINNLFSTVAPVVSVKVCRDMATQRSLGYGYVNFQTTADAEKVIDALNYTGIAPGRQIRVMFSIRDPLQRKSGMNNVFVKKLDTAINAKELQAAFSKCGRVLSCKVALDSAGNSKGYGFVQFETADGTKAALEMNGSKLGDSEVVVAPFVRRVDREAMAAKSFRNIYIKNITASATEADVKAIVEEFGKVDSLFLSEHARFPTKFALVAFEEHQAAVQAIAALNESEESGLTEKAVKLVVCRALSKSERDREKKKAASLYQNHGRNLYIKHLPDDITDDRLREIFEPFGKITSCAIMKEPNGTLKGFAFVCFEDKQHASAALRSLNGHPLEHSAKPLYVSHAEQKDMRIRLLQQRRAAMRHQSRMAPLMNTFPQQWPRHPFPHMVPPMMPPPPPPNMGMPQFMSGPMIRRPVMEPHLMQGEPMRPPNRYTQAREQYPPQQRQDGVDMNYLSTLSPEQQKNYLGELLYSRILPLESSNAAKITGMLLEMSREEIFEILADHFALLSKIQEANAVLQQHTGN”, the “soluble on expression in E. coli” value is reported as “soluble”.

Turning to “MGSSHHHHHSSGENLYFQGHMKHGIYYSYWEHEWSAKFGPYIEKVAKLGFDIIEVAAHHINEYSDAELATIRKSAKDNGIILTAGIGPSKTKNLSSEDAAVRAAGKAFFERTLSNVAKLDIHTIGGALHSYWPIDYSQPVDKAGDYARGVEGINGIADFANDLGINLCIEVLNRFENHVLNTAAEGVAFVKDVGKNNVKVMLDTFHMNIEEDSFGDAIRTAGPLLGHFHTGESNRRVPGKGRMPWHEIGLALRDINYTGAVIMEPFVKTGGTIGSDIKVWRDLSGGADIAKMDEDARNALAFSRFVLGG”, the “soluble on expression in E. coli” value is listed as “soluble”.

In the case of “MESITQIYRIGYGPSSSHTIGPRRAAEMFLDRNPRATSFRVTLYGSLAATGKGHLTDAAILAVLEAKAPTEIVWKPEIFQNFHPNGMLFESFDKEGKQLDDWLIYSIGGGVLANEHFNEQ”, the “soluble on expression in E. coli” value is reported as “not soluble”.

Regarding “MTPEALSFWTQADKPFLFLAACIELTNALAYGPGYVCGLPCSWDGSCSGAQHLCAATRSEDAWKVNLIGNDEVHDLYTIVGNAAKQSMARDTDPMVSTILAYEGDWRKVFKRNTMTTFYGSKGFGMAQQHMDDLMEPLSREVMQKKRAKHPFGQTRKEHHAASRLLAAHAAAAIKGEIPLAIKAMEFIQKLSAMMAHEGKPLEWTTPIGLPWSNRYHDPVTERVNLWMHDHGVRRPFRPVVADGYKKTINKNHSVNGSAPNFVHACDAAHLLRTVNAARAEGITQFALVHDSFGSLPSHAARFRQIIREEFVRMYEEHDVLTEVLEQAKCDLDEHNDKLSALVDMRADLTGKLNIKEVLNAEYAFAYPKLSEPDTKGEYADGKYKTEGTATEDYTERFQEEIQKVADDNFPGKKNVHLPWKETKEGDIAFIFKNPKKKPILTDSRGKPLKEGTVIRGGSKIRIAGVIAAWEKGAKRGVSLWPDAVRVIKLSEGFDANAAFGAAEDGFNADDYEPTNFGNDGEDADNDADDAEAGDDAFKLLEHHHHHH”, the “soluble on expression in E. coli” value is recorded as “not soluble”.

Take “MGSDKIHHHHHHMMSNTAATVNHSQKVDLFIVGGGMIGSALAARLAPSGMRIALLENHQPAAFDPSSPPDLRVSALSPASIDFLEQAQAWPAIQTMRTAPFKRMQVWENRQDHGTMFDAAEVDAPWLGHIVENRLVQLACLEIVEGYDNVTLLCPGEIGQIAYRPEGSHIRLNSGQIFEATLLIGADGANSQVRKAAGIALDSQQYPMHALVATVAIQGGERDITWQRFTPDGPQSLLPLPGDYASLVWYHRPSEVRRLLTLDDDALLDAFRQHFPAVLPEITGLVRRGSFPLARSHAQAYVRPGVALIGDAAHTIHPLAGQGVNLGFQDAAVLSETLLRAWQTGADLAALPHLQRYERQRKLANLVMQRAMDAFSYGFSNDVAPLRLLRNLGLRFADHTGPIKRQVIRYALGLGPQPSLPLPSGLSKLLP”: the “soluble on expression in E. coli” value was “not soluble”.

“MALNRMRQAKGAVASLLQNAYVHRDQVSLISFRGKQAQVLLPPSQSVDRAKRELDVLPTGGGTPLASALLTGWETAKQARAKGITQIMFVMITDGRGNIPLGAAYDPNATKASKEELEKEVEALALSIQADGIASIVVDTQMNYLSRGEAPKLAQKLGGRYFYLPNAKAEQIVEAALS”: the “soluble on expression in E. coli” value was “not soluble”.

Regarding “SLQAINPNWNVPKNIHAFTTTREGGVSLAPYLSFNLGDHVGDNKSAVKTNRTLLVEKFGLPQTPIFLTQTHSTRVIQLPYSGQNLEADAVYTNVPNQVCVVMTADCLPVLFTTTSGNEVAATHAGWRGLCDGVLEETVKYFQAKPEDIIAWFGPAIGPKAFQVGIDVVEKFVVVDEKAKLAFQPDAIEEGKYLSNLYQIATQRLNNLGITQIYGGNHCTFNEKEKFFSYRRDNQTGRMASVIWFE”, the “soluble on expression in E. coli” value was “soluble”.

“KAVIDIDAATKIMCSNAKAISLNEVEKNEIISKYREITAKKSERAELKEVEPIPLDWPSDLTLPPLPESTNDYVWAGKRKELDDYPRKQLIIDGLSIVIPTYNRAKILAITLACLCNQKTIYDYEVIVADDGSKENIEEIVREFESLLNIKYVRQKDYGYQLCAVRNLGLRAAKYNYVAILDCDMAPNPLWVQSYMELLAVDDNVALIGPRKYIDTSKHTYLDFLSQKSLINEIPEIITNNQVAGKVEQNKSVDWRIEHFKNTDNLRLCNTPFRFFSGGNVAFAKKWLFRAGWFDEEFTHWGGEDNEFGYRLYREGCYFRSVEGAMAYHQEPPGKENETDRAAGKNITVQLLQQKVPYFYRKKEKIESATLKRVPLVSIYIPAYNCSKYIVRCVESALNQTITDLEVCICDDGSTDDTLRILQEHYANHPRVRFISQKNKGIGSASNTAVRLCRGFYIGQLDSDDFLEPDAVELCLDEFRKDLSLACVYTTNRNIDREGNLISNGYNWPIYSREKLTSAMICHHFRMFTARAWNLTEGFNESISNAVDYDMYLKLSEVGPFKHINKICYNRVLHGENTSIKKLDIQKENHFKVVNESLSRLGIKKYKYSPLTNLNECRKYTWEKI”: the “soluble on expression in E. coli” value is on record as “soluble”.

In the case of “NPYDVVVIGGGPGGYVASIKAAQLGMKTACVEKRGALGGTCLNVGCIPSKALLHATHLYHDAHANFARYGLMGGEGVTMDSAKMQQQKERAVKGLTGGVEYLFKKNKVTYYKGEGSFETAHSIRVNGLDGKQEMLETKKTIIATGSEPTELPFLPFDEKVVLSSTGALALPRVPKTMVVIGGGVIGLELGSVWARLGAEVTVVEFAPRCAPTLDEDVTNALVGALAKNEKMKFMTSTKVVGGTNNGDSVSLEVEGKNGKRETVTCEALLVSVGRRPFTGGLGLDKINVAKNERGFVKIGDHFETSIPDVYAIGDVVDKGPMLAHKAEDEGVACAEILAGKPGHVNYGVIPAVIYTMPEVASVGKSEDELKKEGVAYKVGKFPFNANSRAKAVSTEDGFVKVLVDKATDRILGVHIVCTTAGELIGEACLAMEYGASSEDVGRTCHAHPTMSEALKEACMALFAKTINF”, the “soluble on expression in E. coli” value was “soluble”.

For the sequence “MGSDKIHHHHHHMTNNRLERFAHNLDWNLLRTFVVVVEEGSITAAANRLLLQQPAVSMALKRLEQTIGQKLIDRRPGRFDLTEAGEKLHLQCRDIFAAVIRLPHVLETAGEEITGHLNIHAVSHAHNPAWDRKLGSFFRMHPKVTISMTVATTVDVLSAVERNIATMGLCDGIIPEGLNKSFHIRERYALYCGRGHRLFGVEGVVFHDLRGDPYIAFIADVLGGQHMNSVTAVRAVGSFGQQVRGVSCNVEEVMRLIAANVGIGMLPDHIASEAVAAGDLWQLPPYRDLPTTDVFRISNPNSILNPAEAAFLAHVADTQALDHCHHQQD”, the “soluble on expression in E. coli” value was “not soluble”.

As for “MAIRLYKLAVALGVFIVSAPAFSHGHHSHGKPLTEVEQKAANGVFDDANVQNRTLSDWDGVWQSVYPLLQSGKLDPVFQKKADADKTKTFAEIKDYYHKGYATDIEMIGIEDGIVEFHRNNETTSCKYDYDGYKILTYKSGKKGVRYLFECKDPESKAPKYIQFSDHIIAPRKSSHFHIFMGNDSQQSLLNEMENWPTYYPYQLSSEEVVEEMMSH”, the “soluble on expression in E. coli” value is on record as “soluble”.
